Assay results from the supplement of paper PMC12764529.
± gives the half width of the 95% confidence interval.

Assay: folding stability dG unfold (combined trypsin and chymotrypsin); higher = more stable
Summary of the method: (§1)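 Mini-proteins designed to be under 80 residues and free of cysteine were carried in a PA-tagged cDNA display construct and digested with trypsin and with chymotrypsin. Each protease was applied at 11 threefold-diluted concentrations, alongside a no-protease condition, before sequencing. K50 came from Bayesian fitting of the sequencing counts, and unfolding free energy was obtained by comparing it with a sequence-predicted unfolded-state K50 and a shared folded-state K50, for each protease separately or for both together. Designs were retained only if their AlphaFold2 dimer inter-PAE exceeded 15.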

| Sequence | folding stability dG unfold [kcal/mol] |
| --- | --- |
| SAGGSAGGSAGGSMKIYKITVKKEDSELEFYVSDDVPAEVAANILKALYPDVEVKIEEGSAGGSAGGSAGGS [r4_155_TrMRF] | 1.11 ± 0.15 |
| SAGGSEDRYLVHVLVRFPDELRELYLEARSPEEVERSVRRAIEELYPERLEDVEVVVFARPVSEPLSAGGSA [r2_111_TrMRF] | 2.14 ± 0.061 |
| SAGGSAGGSAKIWIILKDADEARDRIEELFGPGVRIEPVNIQRWDGKVYVMIEIEIPPNMTSAGGSAGGSAG [r3_87_TrROS] | 2.28 ± 0.054 |
| SAGGSAGGSWIWVIKIENPEKGREYTFFIPGPLEDIKDHIREWNPDPDVKVEIQRIPVSPEAFSAGGSAGGS [r12_92_TrROS] | 1.89 ± 0.094 |
| SAGGSAFEEVKKKYPNAKWEKIGDEGDTAVYRLTFPGGEKILITVPTLPETDEPVVEVTYVPKGEESAGGSA [r15_547_JUSTAS] | 2.82 ± 0.059 |
| SAGGSAGGSAGGEKIIKVHPDNIEAFLKEAKEKGYKVILFPNGEAIVNGKKVKIISDPKSAGGSAGGSAGGS [r10_930_TrMRF] | 1.74 ± 0.18 |
| SAGKTIVLPPEMTKEQIEALAKELAEEEGFEKVELVEYDEEKGVFTVKVKVDGKEKTIEIKIVSPEELESAG [r5_912_TrROS_Hall] | 2.3 ± 0.084 |
| SAGGSMTLEELKNMTVEELRELLGEDAEVTVDEETGTITIRVPGKEVTIEVDEETGEVKIVEVKPVSAGGSA [r2_470_TrROS_Hall] | 2.89 ± 0.26 |
| SAGGSAGGSELEKALASAKPGEEVTVTVESTTPDGTPSVEIVEVKVEAETPSPGKENLEKNRLVSAGGSAGG [r6_893_JUSTAS] | -0.112 ± 0.44 |
| SAGGSMRLVKITVTTLEPSAEAIAAGAPTPVTLIEREVSSEEEVEEFIKSLPPNVEVSVERLPPPASAGGSA [r2_25_JUSTAS] | 2.04 ± 0.12 |
| SAGGSAGGSMEVDIEVETLETEVSFLPGDLIKVKKLVKITLPNGEVLEEETEEIIPKSEIGKLSAGGSAGGS [r12_1028_JUSTAS] | 0.419 ± 0.24 |
| SAGGSAGGSAMTLEEKALESEELKKKIEEAPPSTKLITFELPGGEKITFTKNPDGSVVLSPSAGGSAGGSAG [r3_124_JUSTAS] | 1.2 ± 0.11 |
| SAGGSAGGSPVPVKVVVKLPSSDKTIELTLYPPDVSPDSVVTVDLGGPAIDVKLLPGDVLELSPSAGGSAGG [r6_461_JUSTAS] | 0.323 ± 0.097 |
| SAGGSAMYKVEVTATTSSSSTPYPLEMDFETEEEAKERVKKYLEEKYGDPISSIETKIEPVEPGLESAGGSA [r15_670_JUSTAS] | -0.234 ± 0.36 |
| SAGGSAGGSAGMVINVTVTLKNSTGTITITLPVPPDLLDEVLKELKEKPDYEVVSVDTSPSAGGSAGGSAGG [r11_692_JUSTAS] | 2.67 ± 0.14 |
| SAGGMKTYEYELELEGGGRLRIKITEDPNNPVYTVTFYSPEGKKLKTITIPANSIEEALKEAIELLKSAGGS [r16_158_JUSTAS] | 4.73 ± 0.18 |
| SAGGSAGGWIPVEELAKEFGFSPDFIEQLMKNGYKIEYEYHEPGWVRLSVENPDNGKKREITFPSAGGSAGG [r6_969_TrROS] | 1.92 ± 0.053 |
| SAGGSAGGSAGGSKPKKIKVETVTLEDGLTLQVVVNEDTKEKVIVLVPPSEEVTVLVEPSAGGSAGGSAGGS [r4_99_TrROS_Hall] | 0.648 ± 0.15 |
| SAGGSAGGSVKITTEPDPNGYYRVTVTIRLNDKPIPVDMPFPPGKTPDQVKEKARDIAKELLKSAGGSAGGS [r12_69_TrROS] | 0.455 ± 0.091 |
| SAGGSAGGSAGGKSKTLRLYNKDTGVAVTVTLNEDGSLSVTVEPLPPPPPVEEKVVVKGSAGGSAGGSAGGS [r10_664_TrROS_Hall] | 1.03 ± 0.11 |
| SAGMTLTLELPVPPDMSEEEARALALARVREEVAALSPGGATVTPVAVSVDPETGTVSLEVEVEVPPLASAG [r5_146_JUSTAS] | 1.35 ± 0.037 |

Assay: folding stability dG unfold from trypsin proteolysis; higher = more stable
Summary of the method: as §1

| Sequence | folding stability dG unfold [kcal/mol] |
| --- | --- |
| SAGGMIKLEFENPDGMRIKIEIDRIHRFDPDNGYLIIPVKIEVEPPGKPREIDGTIILPPGMPPGQPLSAGG [r13_823_TrROS] | 2.04 ± 0.19 |
| SAGGSAGGSAGKKEKVILLPVDAEPDETPEELAKKLKELNPDVEVLGFDPETGYVLVKVPSAGGSAGGSAGG [r11_465_TrMRF] | 0.107 ± 0.053 |
| SAGGSEEVEEEPPVVVTVRLTIELTLADGSKVRVEVELVRTADGRLLLKIRVVNEDTGEVYEFTFPSAGGSA [r2_484_TrROS_Hall] | 3.31 ± 0.24 |
| SAGGSAGGSAGKVTLVFKTKEDALNAIKELAEKEGLKVKIVKIEELPNGLIKITVEIEKPSAGGSAGGSAGG [r11_304_TrROS_Hall] | 3.99 ± 0.25 |
| SAGGSAGGKYEIVEVEEKEVNGEKYLIFKVKNENGEELLITVSKEDAEKILASLPPGATVEILPSAGGSAGG [r6_111_TrROS_Hall] | 3.49 ± 0.56 |
| SAGGKDVKPIPVRIKIWYPDDGKPIHEIPVSAYQMDDKIHITFESPELLQFAKELAQKKGFKVEIEPSAGGS [r16_327_TrROS] | 0.513 ± 0.047 |
| SASLEEILASLGYSVSRSVLPNGTEVVTARHPDGTTVTVTVTPDGTTVTVTPPDGTVTTLSVEDVRRALSAG [r14_578_JUSTAS] | 2.97 ± 0.045 |
| SAGGGFSVSTGTLTDPVTGKPITLTVTNLPDGVSRVTVTLEDGKTFEFTFPANNPPTPEQVAEAVKAFSAGG [r13_492_TrMRF] | 3.64 ± 0.078 |
| SAGGALANLSPEEIAALLESQGYEVTILEVEEKPGERIVKIRVTVKREDGTVESVEEIELTLPAPDKLSAGG [r13_566_JUSTAS] | 3.7 ± 0.11 |
| SAGGSAGGSAGGKPKTVKIIRDKKTNRLLIERDGKVYEFDVDNVEVREVTLEDLKEEELSAGGSAGGSAGGS [r10_512_TrROS_Hall] | 0.576 ± 0.14 |
| SAGGMVIVVKTPGGATSITLGNLTITQDPSTGVAVAEATPEQVEALKKDPALKDIESIEILPEEELKSAGGS [r8_493_JUSTAS] | 0.307 ± 0.024 |
| SAGGSAGGMKTVEIEVTVKTPDGKEVKIKKARIEYDKETKTFHLYFENEETGEWYEVDEIKLKDSAGGSAGG [r6_329_TrROS_Hall] | 1.96 ± 0.085 |
| SAGGSMPLTLEIKAPASTPASEIVATLKKYGPVTVTLGDGRTYNIPRDKPPNLKGLPLAPDAVLTLVVSAGG [r13_399_JUSTAS] | -0.08 ± 0.1 |
| SAGGSAGGEISFDPETGKLTILAPSSISPDAIKKAIEEAGIPFKITSVSYIPDPKTLKVEYEISSAGGSAGG [r6_395_TrMRF] | 0.841 ± 0.025 |
| SAGGVIMIPADEILDMIEQNPDEPKTIFARPNNRMVMFTLKIDPDKPDNIEIDNVWRYDPNGKGEHLPSAGG [r13_481_TrROS] | -0.526 ± 0.47 |
| SAMKVTITVTKHTLPDGTPYYTVTITDPSTGKTFSGPVSSEEEAKATAQALADKIEAEGTPVTITFTDDSAG [r14_263_JUSTAS] | 3.97 ± 0.23 |
| SAGGSAGGMKYVVTVELPETGTTRTLTIPDNYTGEENVKKAVEEEAKKLGYSISKIEITKINDKSAGGSAGG [r6_718_JUSTAS] | 0.367 ± 0.086 |
| SAGGSAGGSAGFNIRIVNVEITGNKLTIYLPNGWVITIKFNKNGNINMKIEDIKPLPPGASAGGSAGGSAGG [r17_173_TrROS] | 3.02 ± 0.16 |
| SAGGSAGGVVVVAKFPTREAVFVAPESLTPEQFAEALRRELGNPDAPLVDLEVRRVTPEELLAASAGGSAGG [r6_120_TrMRF] | -0.269 ± 0.16 |
| SAGGSAGGGSSITPVEVTPLPEDKYRVLIRITTYLPGGKPRTEEIEVEMPPDETAEEAAARVLSSAGGSAGG [r6_329_JUSTAS] | 0.341 ± 0.044 |
| SAGMPLPAEELAERLAKEIEESTDYKVSIEEIKPEGEYVIIKVRVELPEKYKDKGYEEEEFVAIFPGDLSAG [r5_970_TrMRF] | 0.703 ± 0.073 |

| Sequence | folding stability dG unfold [kcal/mol] |
| --- | --- |
| SAGGSAGGSAGGSMKIYKITVKKEDSELEFYVSDDVPAEVAANILKALYPDVEVKIEEGSAGGSAGGSAGGS [r4_155_TrMRF] | 1.25 ± 0.048 |
| SAGGSEDRYLVHVLVRFPDELRELYLEARSPEEVERSVRRAIEELYPERLEDVEVVVFARPVSEPLSAGGSA [r2_111_TrMRF] | 2.38 ± 0.038 |
| SAGGSAGGSAKIWIILKDADEARDRIEELFGPGVRIEPVNIQRWDGKVYVMIEIEIPPNMTSAGGSAGGSAG [r3_87_TrROS] | 2.1 ± 0.055 |
| SAGGSAGGSWIWVIKIENPEKGREYTFFIPGPLEDIKDHIREWNPDPDVKVEIQRIPVSPEAFSAGGSAGGS [r12_92_TrROS] | 1.68 ± 0.054 |
| SAGGSAFEEVKKKYPNAKWEKIGDEGDTAVYRLTFPGGEKILITVPTLPETDEPVVEVTYVPKGEESAGGSA [r15_547_JUSTAS] | 2.71 ± 0.093 |
| SAGGSAGGSAGGEKIIKVHPDNIEAFLKEAKEKGYKVILFPNGEAIVNGKKVKIISDPKSAGGSAGGSAGGS [r10_930_TrMRF] | 1.36 ± 0.12 |
| SAGKTIVLPPEMTKEQIEALAKELAEEEGFEKVELVEYDEEKGVFTVKVKVDGKEKTIEIKIVSPEELESAG [r5_912_TrROS_Hall] | 1.62 ± 0.046 |
| SAGGSMTLEELKNMTVEELRELLGEDAEVTVDEETGTITIRVPGKEVTIEVDEETGEVKIVEVKPVSAGGSA [r2_470_TrROS_Hall] | 3.31 ± 0.24 |
| SAGGSAGGSELEKALASAKPGEEVTVTVESTTPDGTPSVEIVEVKVEAETPSPGKENLEKNRLVSAGGSAGG [r6_893_JUSTAS] | -0.602 ± 0.23 |
| SAGGSMRLVKITVTTLEPSAEAIAAGAPTPVTLIEREVSSEEEVEEFIKSLPPNVEVSVERLPPPASAGGSA [r2_25_JUSTAS] | 1.66 ± 0.11 |
| SAGGSAGGSMEVDIEVETLETEVSFLPGDLIKVKKLVKITLPNGEVLEEETEEIIPKSEIGKLSAGGSAGGS [r12_1028_JUSTAS] | 0.808 ± 0.078 |
| SAGGSAGGSAMTLEEKALESEELKKKIEEAPPSTKLITFELPGGEKITFTKNPDGSVVLSPSAGGSAGGSAG [r3_124_JUSTAS] | 0.941 ± 0.051 |
| SAGGSAGGSPVPVKVVVKLPSSDKTIELTLYPPDVSPDSVVTVDLGGPAIDVKLLPGDVLELSPSAGGSAGG [r6_461_JUSTAS] | 0.114 ± 0.034 |
| SAGGSAMYKVEVTATTSSSSTPYPLEMDFETEEEAKERVKKYLEEKYGDPISSIETKIEPVEPGLESAGGSA [r15_670_JUSTAS] | -0.314 ± 0.21 |
| SAGGSAGGSAGMVINVTVTLKNSTGTITITLPVPPDLLDEVLKELKEKPDYEVVSVDTSPSAGGSAGGSAGG [r11_692_JUSTAS] | 2.47 ± 0.11 |
| SAGGMKTYEYELELEGGGRLRIKITEDPNNPVYTVTFYSPEGKKLKTITIPANSIEEALKEAIELLKSAGGS [r16_158_JUSTAS] | 4.6 ± 0.29 |
| SAGGSAGGWIPVEELAKEFGFSPDFIEQLMKNGYKIEYEYHEPGWVRLSVENPDNGKKREITFPSAGGSAGG [r6_969_TrROS] | 1.43 ± 0.022 |
| SAGGSAGGSAGGSKPKKIKVETVTLEDGLTLQVVVNEDTKEKVIVLVPPSEEVTVLVEPSAGGSAGGSAGGS [r4_99_TrROS_Hall] | -0.249 ± 0.31 |
| SAGGSAGGSVKITTEPDPNGYYRVTVTIRLNDKPIPVDMPFPPGKTPDQVKEKARDIAKELLKSAGGSAGGS [r12_69_TrROS] | 0.249 ± 0.089 |
| SAGGSAGGSAGGKSKTLRLYNKDTGVAVTVTLNEDGSLSVTVEPLPPPPPVEEKVVVKGSAGGSAGGSAGGS [r10_664_TrROS_Hall] | 0.527 ± 0.071 |
| SAGMTLTLELPVPPDMSEEEARALALARVREEVAALSPGGATVTPVAVSVDPETGTVSLEVEVEVPPLASAG [r5_146_JUSTAS] | 1.17 ± 0.032 |
